We go through nine molecules from PMC8902617, “A lysine-rich cluster in the N-BAR domain of ARF GTPase-activating protein ASAP1 is necessary for binding and bundling actin filaments” (The Journal of Biological Chemistry, 2022).

In the assay the target is filamentous actin (rabbit skeletal muscle actin) (rabbit, UniProt P68135 1-377). Nature of the assay: co-sedimentation; high-speed actin cosedimentation: test protein (2 μM) with F-actin (0-25 μM) in F-actin buffer (5 mM Hepes pH 8.0, 100 mM KCl, 2 mM MgCl2, 0.2 mM CaCl2, 1 mM ATP, 1 mM DTT) for 30 min, 150,000g for 90 min at 24 °C and/or 4 °C; supernatant and pellet on SDS-PAGE, % test protein in the pellet (ACAP1 also by anti-His6 immunoblot). To be noted: both partners purified. Background: In western blotting, separated proteins are transferred to a membrane and probed.

B1: ASAP1 BAR-PH (residues 1-431), His6-tagged, wild type (domain or fragment)
chain: not shown
notes: ASAP1, BAR-PH tandem, residues 1-431; also called ASAP1-BAR-PH-His6; WT BAR-PH; source: E. coli LOBSTR (DE3) RIL or BL21 (DE3), purified (Ni-NTA or HisTrap; buffer exchange or Sephacryl S100)
One may read the EC50 as the concentration needed to bring the measured effect to its halfway point. Higher therefore signals a less potent agent. Consider B1, for which the EC50 is roughly 1 µM.

B2: [K283A, K284A] ASAP1-BAR-PH-His6 (domain or fragment)
chain: not shown
notes: ASAP1, BAR-PH tandem, residues 1-431; Mutant of m2; source: E. coli LOBSTR (DE3) RIL or BL21 (DE3), purified (Ni-NTA or HisTrap; buffer exchange or Sephacryl S100)
Consider B2, for which the binding result is on record as “binds”.

B3: [Q72E, Y82F, N83D] ASAP1-BAR-PH-His6 (domain or fragment)
chain: not shown
notes: as for B2
With B3, the binding result is given as “binds”.

B4: Q72E ASAP1-BAR-PH-His6 single mutant (domain or fragment)
chain: not shown
notes: as for B2
Take B4: the binding result is “binds”.

B5: [Q72A, Y82A, N83A] ASAP1-BAR-PH-His6 (domain or fragment)
chain: not shown
notes: ASAP1, BAR-PH tandem, residues 1-431; Mutant of m2; the text prints [Q72A, Y82A, N83A] throughout; also called cluster 1b Ala triple mutant; source: E. coli LOBSTR (DE3) RIL or BL21 (DE3), purified (Ni-NTA or HisTrap; buffer exchange or Sephacryl S100)
For the molecule B5, the binding result is reported as “binds”.

B6: [K283E, K284E] ASAP1-BAR-PH-His6 (domain or fragment)
chain: not shown
notes: as for B2
Regarding B6, the binding result is “binds”.

B7: [K229A, K231A, K232A] ASAP1-BAR-PH-His6 (domain or fragment)
chain: not shown
notes: as for B2
Turning to B7, the binding result is recorded as “binds”.

B8: ASAP2 BAR-PH (aa 1-397) (domain or fragment)
chain: not shown
notes: ASAP2, BAR-PH tandem, residues 1-397; source: E. coli LOBSTR (DE3) RIL or BL21 (DE3), purified (Ni-NTA or HisTrap; buffer exchange or Sephacryl S100)
As to B8, the EC50 is roughly 4 µM.

B9: ASAP3 BAR-PH (aa 1-394) (domain or fragment)
chain: MPEQFSVAEFLAVTAEDLSSPAGAAAFAAKMPRYRGAALAREEILEGDQAILQRIKKAVRAIHSSGLGHVENEEQYREAVESLGNSHLSQNSHELSTGFLNLAVFTREVAALFKNLIQNLNNIVSFPLDSLMKGQLRDGRQDSKKQLEKAWKDYEAKMAKLEKERDRARVTGGIPGEVAQDMQRERRIFQLHMCEYLLKAGESQMKQGPDFLQSLIKFFHAQHNFFQDGWKAAQSLFPFIEKLAASVHALHQAQEDELQKLTQLRDSLRGTLQLESREEHLSRKNSGCGYSIHQHQGNKQFGTEKVGFLYKKSDGIRRVWQKRKCGVKYGCLTISHSTINRPPVKLTLLTCQVRPNPEEKKCFDLVTHNRTYHFQAEDEHECEAWVSVLQNSKD
notes: ASAP3, BAR-PH tandem, residues 1-394; source: E. coli LOBSTR (DE3) RIL or BL21 (DE3), purified (Ni-NTA or HisTrap; buffer exchange or Sephacryl S100)
B9 registered an EC50 of roughly 1 µM.
